Laboratory results as given in patent publication US20070134249A1 (GENITOPE, published 2007).

Key:
Experiment in all cases: ELISA
Parameters in all cases: key: 0 = <0.5 OD, 1 = 0.5-1.0 OD, 4 = 1-4 OD
610 = target: T1, 610
T1 construct: H3-23 K4-1; also called PIN610
Excerpt: (§1) Before specificity screening, all of the clonal immunogen-positive hybridoma supernatants were re-screened on the immunogen, a non-family member Id protein, and KLH, if animals were immunized with Id protein that has been conjugated KLH. As described above, this screen identifies HC-specific clones but not mAbs against the light chain constant region. Clones identified positive to the immunogen and KLH were […]. Those found positive to the immunogen but not to the non-family member Id protein or KLH were tittered on the immunogen. In addition to normalizing for different binding affinities and concentrations, each hybridoma supernatant was titered on the fully human form of the Id protein used as the immunogen(s) for the V regions. The titer or dilution resulting in an ELISA absorbance of 2.5 to 3 OD after 30 min. incubation time was then used. Hybridoma specificity was determined by screening against available Id proteins expressing the same HV and KV or LV as well as different HV, KV and LV. The final ELISA results are expressed as follows: 0 (<0.5 OD), 1 (0.5-1.0 OD), or 4 (1-4 OD). Positive hybridoma supernatants are categorized according to specificity: anti-Id, anti-constant region (HC, KC or LC), or V region (HV, KV, LV family or family member).
(§2) In general, the fully human Id protein or proteins containing the immunogen V regions were coated onto 96-well ELISA plates at 2.5-5 ug/mL in carbonate buffer pH 9.6 and incubated at 4° C. for up to 14 days. On the day of the ELISA, plates were brought to RT and blocked with Tris-Tween-20, pH 7.6 for 15-60 min. at RT. Following a NaCl and Triton X-100 wash, diluted hybridoma cell culture supernatants were incubated overnight at 4° C. Hybridoma supernatant dilutions ranged from 1:2 to 1:25 and were prepared in PBS with 5% BSA. Plates were washed and incubated with HRP-conjugated goat anti-mouse IgG-specific detecting antibody. A chromogenic substrate (TMB) was used to measure the amount of mouse antibody bound to each well. The reaction was stopped at or before 30 minutes with IN H2SO4 and plates were read immediately. Absorbency readings at 450 nm ranging between 0-4 OD and using Molecular Devices plate reader and SOFTMAX PRO software.

786 = target: T2, 786
T2 construct: H3-7 K3-15; also called PIN786
Excerpt: as §1, §2

805 = target: T3, 805
T3 construct: H3-7 K3-11; also called PIN805
Excerpt: as §1, §2

902 = target: T4, 902
T4 construct: H3-7 K3-20; also called PIN902
Excerpt: as §1, §2

626 = target: T5, 626
T5 construct: H5-51 K4-1; also called PIN626
Excerpt: as §1, §2

112 = target: T6, 112
T6 construct: H4-39 K4-1; also called PIN112
Excerpt: as §1, §2

199 = target: T7, 199
T7 construct: H3-7 K4-1; also called PIN199
Excerpt: as §1, §2

585 = target: T8, 585
T8 construct: H4-59 K4-1; also called PIN585
Excerpt: as §1, §2

628 = target: T9, 628
T9 construct: fully human Id protein; also called PIN628
T9 sequence (VH, as listed by the source, chain 1 of 2): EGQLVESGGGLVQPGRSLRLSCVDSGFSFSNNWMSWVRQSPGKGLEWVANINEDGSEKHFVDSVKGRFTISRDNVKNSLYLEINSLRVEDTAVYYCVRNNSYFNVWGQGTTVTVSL
T9 sequence (VL, as listed by the source, chain 2 of 2): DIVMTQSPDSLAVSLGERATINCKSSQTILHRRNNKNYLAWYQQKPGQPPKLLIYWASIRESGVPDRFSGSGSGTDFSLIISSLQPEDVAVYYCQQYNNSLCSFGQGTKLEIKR
Excerpt: as §1, §2

763 = target: T10, 763
T10 construct: H4-59 K4-1; also called PIN763
Excerpt: as §1, §2

791 = target: T11, 791
T11 construct: H3-30 K4-1; also called PIN791
Excerpt: as §1, §2

844 = target: T12, 844
T12 construct: H3-7 K4-1; also called PIN844
Excerpt: as §1, §2

792 = target: T13, 792
T13 construct: H1-3 K4-1; also called PIN792
Excerpt: as §1, §2

898 = target: T14, 898
T14 construct: H3-15 K4-1; also called PIN898
Excerpt: as §1, §2

912 = target: T15, 912
T15 construct: H3-23 K4-1; also called PIN912
Excerpt: as §1, §2

952 = target: T16, 952
T16 construct: H3-66 K4-1; also called PIN952
Excerpt: as §1, §2

1014 = target: T17, 1014
T17 construct: H3-53 K4-1; also called PIN1014
Excerpt: as §1, §2

1145 = target: T18, 1145
T18 construct: H3-11 K4-1; also called PIN1145
Excerpt: as §1, §2

1175 = target: T19, 1175
T19 construct: H3-53 K4-1; also called PIN1175
Excerpt: as §1, §2

899 = target: T20, 899
T20 construct: H4-34 K4-1; also called PIN899
Excerpt: as §1, §2

Measured: grade

B1: mAb clone 12C3 (antibody, V domains shown)
VH: EVKLVESGGGLVQPGGSLSLSCAASGFTYTDYYMNWVRQPPGKALEWLALIRNKANGYTTEYSASLKGRFTISRDNSQSILYLQMNALRAEDSATYYCVRENINYYFDYWGQGTTLTVSS
VL: DIVLTQSPASLAVSLGQRATISCRASESVEYFGASLMQWYQQKSGQPPKLLIRAATNVESGVPARFSGSGSGTDFSLNIHPVEEDDIAMYFCQQSRKVPWTFGGGTKLEIKR
notes: Mouse hybridoma mAb, fusions 20/21 (PIN628 V regions)
4: all assays above
